Data published in patent publication US12630600B2 (MEDIMMUNE LIMITED, priority 2022, dated 2026).
Starred links: 1 amine or outer side, 2 acyl side, 3 side chain; linkers in the order of their positions; H or OH if unused. Non-standard residues stand in square brackets, D forms with d. Groups on a side chain read outwards from the residue. No end group written: not given here. *: point of attachment. C20 diacid = O=C(O)CCCCCCCCCCCCCCCCCCC(=O)*; C18 diacid = O=C(O)CCCCCCCCCCCCCCCCC(=O)*; γGlu = O=C(O)[C@H](CCC(=O)[*:2])N[*:1]; αMeF = C[C@](N)(Cc1ccccc1)C(=O)O; AEEA = NCCOCCOCC(=O)O; Aib = CC(C)(N)C(=O)O

Assays:
[1] = target: human GLP-1 receptor (human, UniProt P43220); experiment: cell-based or functional assay
[2] = target: human glucagon receptor (human, UniProt P47871); experiment: cell-based or functional assay

B1: Peptide 515 (peptide)
peptide: H[Aib]QGTFTSDVSK[αMeF]LDTK([AEEA-AEEA-γGlu-C20 diacid])AARDFVQWLLE[Aib]G-NH2
modifications: N-terminus assumed
SMILES: CC(C)C[C@H](NC(=O)[C@H](Cc1c[nH]c2ccccc12)NC(=O)[C@H](CCC(N)=O)NC(=O)[C@@H](NC(=O)[C@H](Cc1ccccc1)NC(=O)[C@H](CC(=O)O)NC(=O)[C@H](CCCNC(=N)N)NC(=O)[C@H](C)NC(=O)[C@H](C)NC(=O)[C@H](CCCCNC(=O)COCCOCCNC(=O)COCCOCCNC(=O)CC[C@H](NC(=O)CCCCCCCCCCCCCCCCCCC(=O)O)C(=O)O)NC(=O)[C@@H](NC(=O)[C@H](CC(=O)O)NC(=O)[C@H](CC(C)C)NC(=O)[C@](C)(Cc1ccccc1)NC(=O)[C@H](CCCCN)NC(=O)[C@H](CO)NC(=O)[C@@H](NC(=O)[C@H](CC(=O)O)NC(=O)[C@H](CO)NC(=O)[C@@H](NC(=O)[C@H](Cc1ccccc1)NC(=O)[C@@H](NC(=O)CNC(=O)[C@H](CCC(N)=O)NC(=O)C(C)(C)NC(=O)[C@@H](N)Cc1c[nH]cn1)[C@@H](C)O)[C@@H](C)O)C(C)C)[C@@H](C)O)C(C)C)C(=O)N[C@@H](CC(C)C)C(=O)N[C@@H](CCC(=O)O)C(=O)NC(C)(C)C(=O)NCC(N)=O
- cAMP production EC50 [1]: 297 pM
- cAMP production EC50 [2]: 2660 pM

B2: Peptide 514 (peptide)
peptide: H[Aib]QGTFTSDVSK[αMeF]LDTK([AEEA-AEEA-γGlu-C18 diacid])AARDFVQWLLE[Aib]G-NH2
modifications: N-terminus assumed
SMILES: CC(C)C[C@H](NC(=O)[C@H](Cc1c[nH]c2ccccc12)NC(=O)[C@H](CCC(N)=O)NC(=O)[C@@H](NC(=O)[C@H](Cc1ccccc1)NC(=O)[C@H](CC(=O)O)NC(=O)[C@H](CCCNC(=N)N)NC(=O)[C@H](C)NC(=O)[C@H](C)NC(=O)[C@H](CCCCNC(=O)COCCOCCNC(=O)COCCOCCNC(=O)CC[C@H](NC(=O)CCCCCCCCCCCCCCCCC(=O)O)C(=O)O)NC(=O)[C@@H](NC(=O)[C@H](CC(=O)O)NC(=O)[C@H](CC(C)C)NC(=O)[C@](C)(Cc1ccccc1)NC(=O)[C@H](CCCCN)NC(=O)[C@H](CO)NC(=O)[C@@H](NC(=O)[C@H](CC(=O)O)NC(=O)[C@H](CO)NC(=O)[C@@H](NC(=O)[C@H](Cc1ccccc1)NC(=O)[C@@H](NC(=O)CNC(=O)[C@H](CCC(N)=O)NC(=O)C(C)(C)NC(=O)[C@@H](N)Cc1c[nH]cn1)[C@@H](C)O)[C@@H](C)O)C(C)C)[C@@H](C)O)C(C)C)C(=O)N[C@@H](CC(C)C)C(=O)N[C@@H](CCC(=O)O)C(=O)NC(C)(C)C(=O)NCC(N)=O
- cAMP production EC50 [1]: 76.7 pM
- cAMP production EC50 [2]: 1370 pM

B3: Peptide 512 (peptide)
peptide: H[Aib]QGT[αMeF]TSDVSK[αMeF]LDTK([AEEA-AEEA-γGlu-C18 diacid])RAQD[αMeF]VRWLLA[Aib]G-NH2
modifications: N-terminus assumed
SMILES: CC(C)C[C@H](NC(=O)[C@H](CC(C)C)NC(=O)[C@H](Cc1c[nH]c2ccccc12)NC(=O)[C@H](CCCNC(=N)N)NC(=O)[C@@H](NC(=O)[C@](C)(Cc1ccccc1)NC(=O)[C@H](CC(=O)O)NC(=O)[C@H](CCC(N)=O)NC(=O)[C@H](C)NC(=O)[C@H](CCCNC(=N)N)NC(=O)[C@H](CCCCNC(=O)COCCOCCNC(=O)COCCOCCNC(=O)CC[C@H](NC(=O)CCCCCCCCCCCCCCCCC(=O)O)C(=O)O)NC(=O)[C@@H](NC(=O)[C@H](CC(=O)O)NC(=O)[C@H](CC(C)C)NC(=O)[C@](C)(Cc1ccccc1)NC(=O)[C@H](CCCCN)NC(=O)[C@H](CO)NC(=O)[C@@H](NC(=O)[C@H](CC(=O)O)NC(=O)[C@H](CO)NC(=O)[C@@H](NC(=O)[C@](C)(Cc1ccccc1)NC(=O)[C@@H](NC(=O)CNC(=O)[C@H](CCC(N)=O)NC(=O)C(C)(C)NC(=O)[C@@H](N)Cc1c[nH]cn1)[C@@H](C)O)[C@@H](C)O)C(C)C)[C@@H](C)O)C(C)C)C(=O)N[C@@H](C)C(=O)NC(C)(C)C(=O)NCC(N)=O
- cAMP production EC50 [1]: 159 pM
- cAMP production EC50 [2]: 2310 pM

B4: Peptide 513 (peptide)
peptide: H[Aib]QGT[αMeF]TSDVSK[αMeF]LDTK([AEEA-AEEA-γGlu-C18 diacid])RARD[αMeF]VQWLLA[Aib]G-NH2
modifications: N-terminus assumed
SMILES: CC(C)C[C@H](NC(=O)[C@H](CC(C)C)NC(=O)[C@H](Cc1c[nH]c2ccccc12)NC(=O)[C@H](CCC(N)=O)NC(=O)[C@@H](NC(=O)[C@](C)(Cc1ccccc1)NC(=O)[C@H](CC(=O)O)NC(=O)[C@H](CCCNC(=N)N)NC(=O)[C@H](C)NC(=O)[C@H](CCCNC(=N)N)NC(=O)[C@H](CCCCNC(=O)COCCOCCNC(=O)COCCOCCNC(=O)CC[C@H](NC(=O)CCCCCCCCCCCCCCCCC(=O)O)C(=O)O)NC(=O)[C@@H](NC(=O)[C@H](CC(=O)O)NC(=O)[C@H](CC(C)C)NC(=O)[C@](C)(Cc1ccccc1)NC(=O)[C@H](CCCCN)NC(=O)[C@H](CO)NC(=O)[C@@H](NC(=O)[C@H](CC(=O)O)NC(=O)[C@H](CO)NC(=O)[C@@H](NC(=O)[C@](C)(Cc1ccccc1)NC(=O)[C@@H](NC(=O)CNC(=O)[C@H](CCC(N)=O)NC(=O)C(C)(C)NC(=O)[C@@H](N)Cc1c[nH]cn1)[C@@H](C)O)[C@@H](C)O)C(C)C)[C@@H](C)O)C(C)C)C(=O)N[C@@H](C)C(=O)NC(C)(C)C(=O)NCC(N)=O
- cAMP production EC50 [1]: 93.8 pM
- cAMP production EC50 [2]: 1340 pM

B5: Peptide 510 (peptide)
peptide: H[Aib]QGTFTSDVSK[αMeF]LDTK([AEEA-AEEA-γGlu-C20 diacid])RARDFVRWLL[Aib]E-OH
modifications: N-terminus assumed
SMILES: CC(C)C[C@H](NC(=O)[C@H](Cc1c[nH]c2ccccc12)NC(=O)[C@H](CCCNC(=N)N)NC(=O)[C@@H](NC(=O)[C@H](Cc1ccccc1)NC(=O)[C@H](CC(=O)O)NC(=O)[C@H](CCCNC(=N)N)NC(=O)[C@H](C)NC(=O)[C@H](CCCNC(=N)N)NC(=O)[C@H](CCCCNC(=O)COCCOCCNC(=O)COCCOCCNC(=O)CC[C@H](NC(=O)CCCCCCCCCCCCCCCCCCC(=O)O)C(=O)O)NC(=O)[C@@H](NC(=O)[C@H](CC(=O)O)NC(=O)[C@H](CC(C)C)NC(=O)[C@](C)(Cc1ccccc1)NC(=O)[C@H](CCCCN)NC(=O)[C@H](CO)NC(=O)[C@@H](NC(=O)[C@H](CC(=O)O)NC(=O)[C@H](CO)NC(=O)[C@@H](NC(=O)[C@H](Cc1ccccc1)NC(=O)[C@@H](NC(=O)CNC(=O)[C@H](CCC(N)=O)NC(=O)C(C)(C)NC(=O)[C@@H](N)Cc1c[nH]cn1)[C@@H](C)O)[C@@H](C)O)C(C)C)[C@@H](C)O)C(C)C)C(=O)N[C@@H](CC(C)C)C(=O)NC(C)(C)C(=O)N[C@@H](CCC(=O)O)C(=O)O
- cAMP production EC50 [1]: 176 pM
- cAMP production EC50 [2]: 118 pM

B6: Peptide 136 (peptide)
peptide: H[Aib]QGTFTSDVSK[αMeF]LDSK([γGlu-γGlu-AEEA-AEEA-γGlu-γGlu-C18 diacid])RARDFVRWLLE[Aib]G-OH
modifications: N-terminus assumed
SMILES: CC(C)C[C@H](NC(=O)[C@H](Cc1c[nH]c2ccccc12)NC(=O)[C@H](CCCNC(=N)N)NC(=O)[C@@H](NC(=O)[C@H](Cc1ccccc1)NC(=O)[C@H](CC(=O)O)NC(=O)[C@H](CCCNC(=N)N)NC(=O)[C@H](C)NC(=O)[C@H](CCCNC(=N)N)NC(=O)[C@H](CCCCNC(=O)CC[C@H](NC(=O)CC[C@H](NC(=O)COCCOCCNC(=O)COCCOCCNC(=O)CC[C@H](NC(=O)CC[C@H](NC(=O)CCCCCCCCCCCCCCCCC(=O)O)C(=O)O)C(=O)O)C(=O)O)C(=O)O)NC(=O)[C@H](CO)NC(=O)[C@H](CC(=O)O)NC(=O)[C@H](CC(C)C)NC(=O)[C@](C)(Cc1ccccc1)NC(=O)[C@H](CCCCN)NC(=O)[C@H](CO)NC(=O)[C@@H](NC(=O)[C@H](CC(=O)O)NC(=O)[C@H](CO)NC(=O)[C@@H](NC(=O)[C@H](Cc1ccccc1)NC(=O)[C@@H](NC(=O)CNC(=O)[C@H](CCC(N)=O)NC(=O)C(C)(C)NC(=O)[C@@H](N)Cc1c[nH]cn1)[C@@H](C)O)[C@@H](C)O)C(C)C)C(C)C)C(=O)N[C@@H](CC(C)C)C(=O)N[C@@H](CCC(=O)O)C(=O)NC(C)(C)C(=O)NCC(=O)O
- cAMP production EC50 [1]: 45.2 pM
- cAMP production EC50 [2]: 509 pM

B7: Peptide 517 (peptide)
peptide: H[Aib]QGTFTSDVSK[αMeF]LEAK([AEEA-AEEA-γGlu-γGlu-C18 diacid])AAREFIAWLLET-NH2
modifications: N-terminus assumed
SMILES: CC[C@H](C)[C@H](NC(=O)[C@H](Cc1ccccc1)NC(=O)[C@H](CCC(=O)O)NC(=O)[C@H](CCCNC(=N)N)NC(=O)[C@H](C)NC(=O)[C@H](C)NC(=O)[C@H](CCCCNC(=O)COCCOCCNC(=O)COCCOCCNC(=O)CC[C@H](NC(=O)CC[C@H](NC(=O)CCCCCCCCCCCCCCCCC(=O)O)C(=O)O)C(=O)O)NC(=O)[C@H](C)NC(=O)[C@H](CCC(=O)O)NC(=O)[C@H](CC(C)C)NC(=O)[C@](C)(Cc1ccccc1)NC(=O)[C@H](CCCCN)NC(=O)[C@H](CO)NC(=O)[C@@H](NC(=O)[C@H](CC(=O)O)NC(=O)[C@H](CO)NC(=O)[C@@H](NC(=O)[C@H](Cc1ccccc1)NC(=O)[C@@H](NC(=O)CNC(=O)[C@H](CCC(N)=O)NC(=O)C(C)(C)NC(=O)[C@@H](N)Cc1c[nH]cn1)[C@@H](C)O)[C@@H](C)O)C(C)C)C(=O)N[C@@H](C)C(=O)N[C@@H](Cc1c[nH]c2ccccc12)C(=O)N[C@@H](CC(C)C)C(=O)N[C@@H](CC(C)C)C(=O)N[C@@H](CCC(=O)O)C(=O)N[C@H](C(N)=O)[C@@H](C)O
- cAMP production EC50 [1]: 146 pM
- cAMP production EC50 [2]: 738 pM
